{"source": "patent US20220275053A1", "about": "“MODIFIED […] PEPTIDE LIGANDS” (BicycleTx Limited, priority 2019, published 2022)", "molecules": {"B1": {"name": "BCY9931 (peptide)", "peptide": "ACIEEGQYCFADPYXCX", "modifications": "N-terminal acetyl; Nle (norleucine) at position 12 of the core; C-terminal Dap(Lys(PYA)) amide (CONH2); the three Cys (Ci, Cii, Ciii) cyclised on the TATA scaffold; joined through PYA to spacer SA (n = 23) on central hinge moiety A; Alexa Fluor 488 conjugated to one of the four peptides (formula (I))", "notes": "also called fluorescent CD137 multimer; fluorescent tetramer"}, "B2": {"name": "BCY9932 (peptide)", "peptide": "ACIEEGQYCFADPYXCX", "modifications": "N-terminal acetyl; Nle (norleucine) at position 12 of the core; C-terminal Dap(PYA) amide (CONH2); the three Cys cyclised on the TATA scaffold; joined through PYA to spacer SA (n = 10) on central hinge moiety B; Alexa Fluor 488 on the hinge without spacer (formula (II))", "notes": "also called fluorescent CD137 multimer; fluorescent trimer"}, "B3": {"name": "BCY7340 (peptide)", "peptide": "CIEEGQYCFADPYMCAX", "modifications": "N-terminal acetyl; C-terminal Pra (propargylglycine) amide (CONH2); the three Cys cyclised on the TATA scaffold; joined through Pra to spacer SA (n = 23) on central hinge moiety C; fluorescein on the hinge without spacer (formula (II))", "notes": "also called fluorescent CD137 multimer; fluorescent CD137 dimer"}}, "key": {"[1]": {"molecular_target": "T1, CD137 (Homo sapiens, UniProt Q07011)", "T1 construct": "Human peripheral blood mononuclear cells (PBMCs) were isolated from buffy coats from two donors; endogenous in cells", "T1 sequence (Q07011 24-255)": "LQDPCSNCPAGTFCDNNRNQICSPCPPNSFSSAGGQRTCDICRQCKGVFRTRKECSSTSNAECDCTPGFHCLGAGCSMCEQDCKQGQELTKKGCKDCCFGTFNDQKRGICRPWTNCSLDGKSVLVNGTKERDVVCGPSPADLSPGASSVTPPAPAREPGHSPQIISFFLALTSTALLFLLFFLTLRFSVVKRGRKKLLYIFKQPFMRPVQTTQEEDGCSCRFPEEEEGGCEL", "assay": "BCY15416 direct binding to CD4 and CD8 positive T-cells (CD3 stimulated PBMCs, flow cytometry)", "method": "To evaluate the affinity of a CD137 dimeric Bicycle® peptide conjugated to Alexa Fluor® 488, herein referred to as BCY15416, a binding assay utilizing CD3 stimulated primary peripheral blood mononuclear cells (PBMCs) was implemented.\nOn the day of the experiment, medium was prepared by supplementing RPMI-1640 (Gibco™ 11875-093; with L-glutamine) with 10% heat-inactivated fetal bovine serum (FBS; Corning® 35-011-CV), 10 mM HEPES (Gibco™ 15-630-080), and 1% Penicillin Streptomycin (Corning™ 30-002-CI), herein referred to as working medium. Previously isolated human peripheral blood mononuclear cells (PBMCs), from whole blood, were quick thawed in a water bath and washed once at 500 rpm for 5 minutes in 10 mL of prewarmed working medium. PBMC pellet was then resuspended in working medium at a concentration of 3×10^6 cells/mL. Subsequently, 100 μL of cell suspension was plated in a flat-bottom tissue-culture coated 96-well plate (Greiner CellStar® 655180). Anti-human CD3 (200 ng/mL; BioLegend® 317347; clone OKT3) was added to the cell plate (100 μL/well) at a final concentration of 100 ng/mL Whereas, for unstimulated controls 100 μL of working medium was added. Cells were incubated overnight (12-24 hours) at 37° C., 5% CO2.\nPlates were then incubated for 1 hour at 37° C., 5% CO2. Post-incubation, plate was centrifuged at 500 rpm for 5 minutes and supernatant discarded. Samples were then washed once in 200 μL of 1× phosphate buffer saline (PBS; Gibco™ 10-010-023) at 500 rpm for 5 minutes. Cells were resuspended in 200 μL of PBS and transferred to a 96-well V-bottom polypropylene plate (Greiner Bio-One 651201). Samples were then centrifuged at 500 rpm for 5 minutes and supernatant was discarded.\nPreparation of samples for flow cytometry: Zombie Violet™ Fixable Viability Dye (BioLegend® 423113) was prepared as a 1:1000 dilution in PBS and 100 μL of viability dye was added to each well and incubated in the dark at 4° C. for 30 minutes. Subsequently, wells were washed with 100 μL of PBS for 5 minutes at 500 rpm and supernatant was discarded. Next, human TruStain FcX™ block (BioLegend® 422302) was prepared by diluting 1.5 μL of FcX in 25 μL of stain buffer (1×PBS supplemented with 2% FBS). Fc block solution (25 μL/well) was incubated at room temperature (RT) for 10 minutes in the dark. […] Cells resuspended in 200 μL of stain buffer were kept at 4° C. and in the dark until read by BD FACSCelesta™ flow cytometer and FCS files were analyzed in FlowJo™.\nCells were gated on lymphocytes→singlets→live→CD4+ or CD8+→CD137+/− and the geometric mean of Alexa Fluor® 488 (conjugated to BCY15416) was calculated from the CD137+ and CD137− populations shown below. […] Calculated binding affinity (kd,app) for each donor appear in Table 5."}, "[2]": {"molecular_target": "T1, CD137", "assay": "Fluorescent multimers human immune cell direct binding assay (FACS)", "settings": "FIG. 3A", "method": "Human peripheral blood mononuclear cells (PBMCs) were isolated from buffy coats from two donors according to standard protocols. PBMCs were used for the next step or alternatively CD8+ T cells were then isolated from the PBMCs with a MACS CD8+ T cell isolation kit (negative bead selection) according to the manufacturer's protocol (Miltenyi Biotec). PBMCs or purified CD8+ T cells were then activated for 24 hours in tissue culture flasks coated with CD3 antibody in R10 media (RPMI1640+10% FBS+1× Pen-Strep). Alternatively, cells were incubated in R10 media containing 1 μg/ml of soluble CD3 antibody (OKT3) for 24 hours. Cells were then transferred to CD3-coated 96-well flat bottom plates and incubated in R10 media in the presence of fluorescent CD137 multimers or a fluorescent EphA2 bicyclic peptide monomer (BCY0215), which was used as a negative control, at different concentrations for 1 hour at 37° C. After 1 hour, cells were transferred to a V-bottom plate and washed and stained for FACs analysis. Briefly, cells were stained in 1× Live/Dead BV510 for 15 minutes, washed, and then surface stained with the following antibodies: CD8-BV785 (or CD3-BV605) and CD137-PECy5 (diluted 1:100). Cells were then washed and fixed in 2% paraformaldehyde (PFA). Cells were run on the BD FACSCelesta and FCS files were analyzed in FlowJo. […]"}, "[3]": {"molecular_target": "T2, CD137 (Macaca fascicularis, UniProt A9YYE7)", "T2 construct": "Cryopreserved PBMCs were purchased from Worldwide Primates and thawed according to standard protocol", "T2 sequence (A9YYE7 1-254)": "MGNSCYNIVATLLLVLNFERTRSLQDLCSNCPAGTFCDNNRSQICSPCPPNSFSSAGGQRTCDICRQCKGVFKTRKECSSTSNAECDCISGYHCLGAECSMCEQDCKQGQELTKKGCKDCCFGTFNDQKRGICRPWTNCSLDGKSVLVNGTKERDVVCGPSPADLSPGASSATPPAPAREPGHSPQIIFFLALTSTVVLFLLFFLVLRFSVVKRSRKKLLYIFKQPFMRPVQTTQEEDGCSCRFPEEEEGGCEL", "assay": "Fluorescent multimer cyno immune cell direct binding assay (FACS)", "set-up": "species or system cynomolgus monkey", "settings": "FIG. 4", "method": "Cryopreserved PBMCs were purchased from Worldwide Primates and thawed according to standard protocol. CD8+ T cells were then isolated from the PBMCs with a MACS CD8+ T cell isolation kit (negative bead selection) according to the manufacturer's protocol (Miltenyi Biotec). Purified CD8+ T cells were then activated for 48 hours 96 well plates coated with CD3 antibody (1 μg/ml) in R10 media (RPMI1640+10% FBS+1× Pen-Strep). Cells were incubated in R10 media in the presence of fluorescent CD137 multimers or a fluorescent EphA2 bicyclic peptide monomer (BCY0215), which was used as a negative control, at different concentrations for 1 hour at 37° C. After 1 hour, cells were transferred to a V-bottom plate and washed and stained for FACs analysis. Briefly, cells were stained in 1× Live/Dead BV510 for 15 minutes, washed, and then surface stained with the following antibodies: CD8-BV785 and CD137-PECy5 (diluted 1:100 in 2% FBS/PBS). Cells were then washed and fixed in 2% paraformaldehyde (PFA). Cells were run on the BD FACSCelesta and FCS files were analyzed in FlowJo. Cells were gated on Single/Live/Lymphocytes/CD8+/CD137+ or CD137−. The FITC geometric mean of the CD137+ population is shown."}, "[4]": {"molecular_target": "T3, human CD137 (human, UniProt Q07011 24-255)", "T3 construct": "whole, on cells; Endogenous receptor on CD3-stimulated human PBMCs or purified CD8+ T cells; also called CD137 receptor; 4-1BB", "T3 sequence (Q07011 24-255)": "as the sequence (Q07011 24-255) above", "assay": "flow cytometry, direct binding to activated human CD8+/CD137+ T cells"}}, "note": "*1 amine or outer side, *2 acyl side, *3 side chain or, on linkers, in order; H or OH if unused. Where a SMILES comes first, the peptide text is derived from it. Bridges are numbered along the chain shown (N, C = ends). Roman numbers before positions name the chains, in order. [ ]: non-standard residue; d: D form. X1 = N=c1ccc2c(-c3ccc(C(=O)NCCOCCOCCN(CCOCCOCCOCCn4cc(CCC(=O)[*:1])nn4)CCOCCOCCOCCn4cc(CCC(=O)[*:2])nn4)cc3C(=O)O)c3ccc(N)c(S(=O)(=O)O)c3oc-2c1S(=O)(=O)O; TATA = O=C(CC[*:1])N1CN(C(=O)CC[*:2])CN(C(=O)CC[*:3])C1; tBuAla = CC(C)(C)C[C@H](N)C(=O)O; Nle = CCCC[C@H](N)C(=O)O"}
{"molecule": "CCCC[C@@H]1NC(=O)[C@H](Cc2ccc(O)cc2)NC(=O)[C@@H]2CCCN2C(=O)[C@H](CC(=O)O)NC(=O)[C@H](C)NC(=O)[C@H](Cc2ccccc2)NC(=O)[C@@H]2CSCCC(=O)N3CN(CN(C3)C(=O)CCSC[C@@H](C(=O)N[C@@H](C)C(N)=O)NC1=O)C(=O)CCSC[C@H](NC(C)=O)C(=O)N[C@@H](CC(C)(C)C)C(=O)N1CCC[C@H]1C(=O)N[C@@H](CCC(=O)O)C(=O)N[C@H](CCCCNC(=O)CCc1cn(CCOCCOCCOCCN(CCOCCOCCNC(=O)c3ccc(-c4c5ccc(=N)c(S(=O)(=O)O)c-5oc5c(S(=O)(=O)O)c(N)ccc45)c(C(=O)O)c3)CCOCCOCCOCCn3cc(CCC(=O)NCCCC[C@H]4NC(=O)[C@H](CCC(=O)O)NC(=O)[C@@H]5CCCN5C(=O)[C@H](CC(C)(C)C)NC(=O)[C@@H](NC(C)=O)CSCCC(=O)N5CN6CN(C5)C(=O)CCSC[C@H](NC(=O)[C@H](Cc5ccc(O)cc5)NC(=O)[C@@H]5CCCN5C4=O)C(=O)N[C@@H](Cc4ccccc4)C(=O)N[C@@H](C)C(=O)N[C@@H](CC(=O)O)C(=O)N4CCC[C@H]4C(=O)N[C@@H](Cc4ccc(O)cc4)C(=O)N[C@@H](CCCC)C(=O)N[C@H](C(=O)N[C@@H](C)C(N)=O)CSCCC6=O)nn3)nn1)C(=O)N1CCC[C@H]1C(=O)N[C@@H](Cc1ccc(O)cc1)C(=O)N2", "note": "[BCY15416] (I: Ac-C[tBuAla]PE[dK]PYCFADPY[Nle]CA-NH2 / II: Ac-C[tBuAla]PE[dK]PYCFADPY[Nle]CA-NH2; linker I:1-I:8-I:15, II:1-II:8-II:15 via TATA; linker I:5-II:5 via X1; C-terminus assumed)", "values": [{"measurement": "binding to CD137+ T-cells (Alexa Fluor 488 geometric mean)", "setting": "[1]; CD137+CD4+ and CD137+CD8+ T-cells, three human PBMC donors, FIG. 6", "value": "binding exclusively to the CD137+CD4+ T-cells and CD137+CD8+ T-cells, in a dose-dependent manner"}, {"measurement": "binding to CD137− T cells", "setting": "[1]; CD137− CD4 and CD8 T cells, FIGS. 6A and 6B", "value": "does not bind"}, {"measurement": "binding affinity in CD137− populations", "setting": "[1]; CD137− populations for both CD4+ and CD8+", "value": "unable to be calculated"}, {"measurement": "binding affinity (range in words)", "setting": "[1]; both CD137+CD4+ and CD137+CD8+ populations", "value": "sub-nanomolar range"}]}
{"molecule": "BCY7340: Fluorescent CD137 dimer: formula (II), CHM C, 2 x BCY7077, SA n=23, fluorescein modifier (CIEEGQYCFADPYMCAX; not fully specified; non-natural residues; cyclised or stapled)", "values": [{"measurement": "binding potency relative to fluorescent trimer (BCY9932) and tetramer (BCY9931)", "setting": "[2]; human CD137+ T cells", "value": "slightly less potent binding"}, {"measurement": "binding to human CD137+ T cells (FITC geometric mean)", "setting": "[2]; purified CD8+/CD137+ T cells from human PBMCs, 1 hour at 37° C.", "value": "bind to human CD137+ T cells in a dose responsive manner"}, {"measurement": "binding potency relative to fluorescent trimer (BCY9932) and tetramer (BCY9931)", "setting": "[3]; cyno CD137+ T cells", "value": "less potent binding"}, {"measurement": "binding to cyno CD137+ T cells (FITC geometric mean)", "setting": "[3]; purified CD8+/CD137+ T cells from cynomolgus monkey PBMCs, 1 hour at 37° C.", "value": "bind to cyno CD137+ T cells in a dose responsive manner"}]}
{"molecule": "B1", "values": [{"measurement": "binding result", "setting": "[4]", "value": "binds"}]}
{"molecule": "B2", "values": [{"measurement": "binding result", "setting": "[4]", "value": "binds"}]}
{"molecule": "B3", "values": [{"measurement": "binding result", "setting": "[4]", "value": "binds"}]}
